These results are taken from patent publication US20200109211A1 (ELSALYS BIOTECH, published 2020).

The target of assay [1] is T1, recombinant human CD160 protein, soluble form, with a C-terminal tag of 6 histidine residues (R&D SYSTEMS) (human, UniProt O95971 27-159, limits assumed, biotinylated with EZ-Link sulfo-NHS-LC-biotin for BLI and ELISA; not biotinylated when immobilised on the CM5 chip for SPR).
T1 construct: domain: soluble form; Bought protein; also called hCD160-his; biotinylated CD160
T1 sequence: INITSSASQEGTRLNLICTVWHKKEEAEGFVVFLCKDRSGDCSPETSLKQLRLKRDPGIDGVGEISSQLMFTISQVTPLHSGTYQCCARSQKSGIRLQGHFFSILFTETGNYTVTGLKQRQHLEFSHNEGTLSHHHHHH
Description: BLI (Octet K2), biotinylated hCD160-His on streptavidin sensor, antibody as analyte. As for the experimental part:
(§1) All the experiments were carried out at 30° C. in the running buffer recommended by Fortebio (PBS with 0.1% (p/v) of bovine serum albumin (BSA) and 0.02% (v/v) Tween-20). This buffer was also used for diluting the various ligands and analytes. The samples deposited in a 96-well microplate (cat #738-0026, Dutscher) were shaken at 1000 revolutions per minute.
Between the measurements, the surfaces of the biosensor were regenerated by exposing them to 3 cycles of 5 sec in 10 mM glycine, pH 2, followed by 5 sec in running buffer. The association and dissociation phases were measured for 300 seconds. All the measurements were corrected for the basic drift by subtracting a reference well with a ligand subjected only to the running buffer.
(§2) The dissociation constants and the association (kₒₙ) and dissociation (kdis) rate constants for each antibody were calculated by applying a 1:1 interaction model, with overall mathematical modelling of curves (fit) (Rmax bound by the sensor) on the ForteBio 9.0 data analysis software.

Assay [2] addresses T1, recombinant human CD160 protein, …. Description: BLI, biotinylated CD160 at 10 nM on streptavidin sensor, antibody 3.13-100 nM. Here is the method:
as §1, §2

Assay [3] deals with T2, human CD160 (CD160 GPI isoform) on cells (human, UniProt O95971 25-159, GPI anchor).
T2 sequence (looked up): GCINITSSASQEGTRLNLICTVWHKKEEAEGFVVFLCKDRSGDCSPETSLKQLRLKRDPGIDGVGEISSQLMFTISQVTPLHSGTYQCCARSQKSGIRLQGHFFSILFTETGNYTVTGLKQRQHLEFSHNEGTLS
Description: cell-based or functional assay.

Assay [4] addresses T1, recombinant human CD160 protein, …. Put plainly: BLI, biotinylated CD160 at 10 nM on streptavidin sensor, antibody 3.13-100 nM. The source holds these as a separate data set.
For assay [5] the target is unchanged. Description: BLI.
The target is the same in assay [6]. Put plainly: SPR (Biacore), design close to Example 2.
The target is the same in assay [7]. Description: BLI (repeats Table 8).
Assay [8] has the same target. Put plainly: BLI, biotinylated CD160 at 10 nM on streptavidin sensor, antibody 3.13-100 nM. The source holds these as a separate data set.
Assay [9] shares this target. Put plainly: BLI (repeats Table 9).

B1: chimerized antibody issued from CL1-R2 in the human IgG1 format (antibody, V domains shown)
VH: QVHLQQSGAELARPGASVKLSCKASGYTFTDYWMQWIKQRPGQGLEWIGSIYPGDDDARYTQKFRGKATLTADKSSSTAYMQLSSLASEDSAVYYCARRGIAAVVGGFDYWGQGTTLTVSS
VL: DIVLTQSPATLSVTPGNSVSLSCRASQSISNHLHWYQQKSHESPRLLIKYASQSISGIPSRFSGSGSGTDFTLSINSVETEDFGMYFCQQSNSWPLTFGAGTKLELK
notes: also called chIgG1; chimeric IgG1
As to B1, in [1], the “Binding response, at 50 nM of anti-CD160” value is 0.41 nm (arbitrary units); the Kd is 14.3 nM; the koff was found to be 0.00297 s⁻¹; the kon is 208000 M⁻¹ s⁻¹.

B2: chimerized antibody issued from CL1-R2 in the human IgG4 format (antibody, V domains shown)
VH: QVHLQQSGAELARPGASVKLSCKASGYTFTDYWMQWIKQRPGQGLEWIGSIYPGDDDARYTQKFRGKATLTADKSSSTAYMQLSSLASEDSAVYYCARRGIAAVVGGFDYWGQGTTLTVSS
VL: DIVLTQSPATLSVTPGNSVSLSCRASQSISNHLHWYQQKSHESPRLLIKYASQSISGIPSRFSGSGSGTDFTLSINSVETEDFGMYFCQQSNSWPLTFGAGTKLELK
notes: also called chIgG4; chimeric IgG4
Regarding B2, in [1], the “Binding response, at 50 nM of anti-CD160” value is 0.41 nm (arbitrary units); the Kd turned out to be 14.8 nM; the koff amounted to 0.00323 s⁻¹; the association rate constant (kon) turned out to be 218000 M⁻¹ s⁻¹.

B3: CL1-R2 murine monoclonal anti-human CD160 antibody (antibody, V domains shown)
VH: QVHLQQSGAELARPGASVKLSCKASGYTFTDYWMQWIKQRPGQGLEWIGSIYPGDDDARYTQKFRGKATLTADKSSSTAYMQLSSLASEDSAVYYCARRGIAAVVGGFDYWGQGTTLTVSS
VL: DIVLTQSPATLSVTPGNSVSLSCRASQSISNHLHWYQQKSHESPRLLIKYASQSISGIPSRFSGSGSGTDFTLSINSVETEDFGMYFCQQSNSWPLTFGAGTKLELK
notes: Murine IgG1; also called parental CL1-R2; murine anti-CD160 IgG1
Turning to B3, in assay [1], the “Binding response, at 50 nM of anti-CD160” value was 0.6 nm (arbitrary units); the Kd turned out to be 15.4 nM; the dissociation rate constant (koff) came out at 0.00283 s⁻¹; the on-rate constant (kon) was 183000 M⁻¹ s⁻¹.

B4: F04 in the IgG1 E345K format (antibody)
heavy: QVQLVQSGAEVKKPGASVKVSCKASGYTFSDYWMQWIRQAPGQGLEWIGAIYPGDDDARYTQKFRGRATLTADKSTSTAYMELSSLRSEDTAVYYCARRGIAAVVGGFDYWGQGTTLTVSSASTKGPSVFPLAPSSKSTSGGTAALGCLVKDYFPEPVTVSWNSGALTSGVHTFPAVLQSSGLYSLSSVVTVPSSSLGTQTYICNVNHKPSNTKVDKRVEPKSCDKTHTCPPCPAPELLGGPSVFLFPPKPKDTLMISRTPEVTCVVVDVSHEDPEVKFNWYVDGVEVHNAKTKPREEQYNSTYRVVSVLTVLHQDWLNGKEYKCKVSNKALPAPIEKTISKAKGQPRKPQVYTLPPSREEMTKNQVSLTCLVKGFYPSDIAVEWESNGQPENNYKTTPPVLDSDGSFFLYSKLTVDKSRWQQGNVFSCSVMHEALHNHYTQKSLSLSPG
light: EIVLTQSPATLSLSPGERATLSCRASQSISNHLHWYQQKPGQAPRLLIKYASQSISGIPARFSGSGSGTDFTLTISSLEPEDFAVYFCQQSNSWPLTFGGGTKVEIKRTVAAPSVFIFPPSDEQLKSGTASVVCLLNNFYPREAKVQWKVDNALQSGNSQESVTEQDSKDSTYSLSSTLTLSKADYEKHKVYACEVTHQGLSSPVTKSFNRGEC
notes: also called ELB02113
With B4, in assay [2], the Kd is 1.55 nM, the off-rate (koff) turned out to be 0.000662 s⁻¹ and the kon was 427000 M⁻¹ s⁻¹. Moreover, in assay [3], the “EC50 of IFN-gamma production by NK cells, additional improvement against the IgG1 variants” value amounted to 2 logs and the “EC50 of IFN-gamma production by NK cells, improvement against ELB02101” value was determined as 4 logs.

B5: F04 IgG4 S228P/R409K (antibody)
heavy: QVQLVQSGAEVKKPGASVKVSCKASGYTFSDYWMQWIRQAPGQGLEWIGAIYPGDDDARYTQKFRGRATLTADKSTSTAYMELSSLRSEDTAVYYCARRGIAAVVGGFDYWGQGTTLTVSSASTKGPSVFPLAPCSRSTSESTAALGCLVKDYFPEPVTVSWNSGALTSGVHTFPAVLQSSGLYSLSSVVTVPSSSLGTKTYTCNVDHKPSNTKVDKRVESKYGPPCPPCPAPEFLGGPSVFLFPPKPKDTLMISRTPEVTCVVVDVSQEDPEVQFNWYVDGVEVHNAKTKPREEQFNSTYRVVSVLTVLAQDWLNGKEYKCKVSNKGLPSSIEKTISKAKGQPREPQVYTLPPSQEEMTKNQVSLTCLVKGFYPSDIAVEWESNGQPENNYKTTPPVLDSDGSFFLYSKLTVDKSRWQEGNVFSCSVMHEALHNQYTQKSLSLSLG
light: EIVLTQSPATLSLSPGERATLSCRASQSISNHLHWYQQKPGQAPRLLIKYASQSISGIPARFSGSGSGTDFTLTISSLEPEDFAVYFCQQSNSWPLTFGGGTKVEIKRTVAAPSVFIFPPSDEQLKSGTASVVCLLNNFYPREAKVQWKVDNALQSGNSQESVTEQDSKDSTYSLSSTLTLSKADYEKHKVYACEVTHQGLSSPVTKSFNRGEC
notes: also called ELB01106
In the case of B5, the results for the Kd in [4], in assay [6] and in [7] were 1.63 nM, 4.1 nM and 1.63 nM, respectively. Further, the dissociation rate constant (koff) in [4] worked out at 0.000736 s⁻¹; in assay [6] it was 0.000721 s⁻¹; in assay [7] it was 0.000736 s⁻¹. Also, the figures for the kon in [4], in assay [6] and in assay [7] were 453000 M⁻¹ s⁻¹, 176000 M⁻¹ s⁻¹ and 453000 M⁻¹ s⁻¹, respectively. In addition, the “Gain in KD/respective IgG” value was found to be 1.8 fold in [5] and 3.5 fold in [6].

B6: H7 IgG4 S228P/R409K/H310A/H435Q (antibody)
heavy: QVQLVQSGAEVKKPGASVKVSCKASGYTFTDYWMQWIRQAPGQGLEWIGSIYPGDDDARYTQKFRGRATLTADKSTSTAYMELSSLRSEDTAVYYCARRGIAAVVGGFDYWGQGTTLTVSSASTKGPSVFPLAPCSRSTSESTAALGCLVKDYFPEPVTVSWNSGALTSGVHTFPAVLQSSGLYSLSSVVTVPSSSLGTKTYTCNVDHKPSNTKVDKRVESKYGPPCPPCPAPEFLGGPSVFLFPPKPKDTLMISRTPEVTCVVVDVSQEDPEVQFNWYVDGVEVHNAKTKPREEQFNSTYRVVSVLTVLAQDWLNGKEYKCKVSNKGLPSSIEKTISKAKGQPREPQVYTLPPSQEEMTKNQVSLTCLVKGFYPSDIAVEWESNGQPENNYKTTPPVLDSDGSFFLYSKLTVDKSRWQEGNVFSCSVMHEALHNQYTQKSLSLSLG
light: EIVLTQSPATLSLSPGERATLSCRASQSISNHLHWYQQKPGQAPRLLIKYASQSISGIPARFSGSGSGTDFTLTISSLEPEDFAVYFCQQSNSWPLTFGGGTKVEIKRTVAAPSVFIFPPSDEQLKSGTASVVCLLNNFYPREAKVQWKVDNALQSGNSQESVTEQDSKDSTYSLSSTLTLSKADYEKHKVYACEVTHQGLSSPVTKSFNRGEC
notes: also called ELB01102; H7 IgG4 H310A-H435Q
For the molecule B6, in assay [4], the Kd amounted to 2.91 nM, the off-rate constant (koff) stood at 0.00148 s⁻¹ and the on-rate constant (kon) is 507000 M⁻¹ s⁻¹. Further, in assay [6], the Kd turned out to be 14.5 nM, the koff is 0.00297 s⁻¹ and the on-rate (kon) was found to be 205000 M⁻¹ s⁻¹. Moreover, in assay [7], the dissociation constant (Kd) is 2.91 nM, the koff worked out at 0.00148 s⁻¹ and the kon came to 507000 M⁻¹ s⁻¹.

B7: F04 in the IgG1 format (antibody)
heavy: not shown
light: EIVLTQSPATLSLSPGERATLSCRASQSISNHLHWYQQKPGQAPRLLIKYASQSISGIPARFSGSGSGTDFTLTISSLEPEDFAVYFCQQSNSWPLTFGGGTKVEIKRTVAAPSVFIFPPSDEQLKSGTASVVCLLNNFYPREAKVQWKVDNALQSGNSQESVTEQDSKDSTYSLSSTLTLSKADYEKHKVYACEVTHQGLSSPVTKSFNRGEC
notes: also called ELB02103
For B7, in assay [8], the equilibrium dissociation constant (Kd) came out at 1.43 nM, the koff was 0.000531 s⁻¹ and the association rate constant (kon) worked out at 371000 M⁻¹ s⁻¹. The “EC50 of NK cell activation (IFN-γ, CD69), improvement against ELB02101” value in [3] was in the range of 2 to 3 logs. Moreover, the “Gain in KD/respective IgG” value in [5] is 2.1 fold. In addition, in assay [6], the “Gain in KD/respective IgG” value stood at 3.3 fold, the Kd came out at 3.6 nM, the koff was 0.000726 s⁻¹ and the on-rate (kon) worked out at 200000 M⁻¹ s⁻¹. In addition, in assay [9], the Kd was found to be 1.43 nM, the koff was found to be 0.000531 s⁻¹ and the on-rate constant (kon) is 371000 M⁻¹ s⁻¹.
